{"source": "patent US10526416B2", "about": "“Anti-HER3 antibodies and uses of same” (Yeda Research and Development Co. Ltd., priority 2014, dated 2020)", "molecules": {"B1": {"name": "XC252: anti-HER3 mAb generated as described in Chen X, et al. (1996); heavy and light chain SEQ ID NOs: 49 and 53 (antibody, V domains shown)", "VH": "EVQLQQSGAELVRPGVSVKISCKGSGYTFTDYAMHWVKQSHAKSLEWIGVISTYYGDPRDNQKFKGKATMTVDKSSSTAYMELARLTSEDSAIYYCARGDYDWYAIDYWGQGTSVTVSS", "VL": "DVVMTQTPLSLPVSLGDQASISCRSSQSIVHSDGNTYLEWYLQKPGQSPKLLIYKVSNRFSGVPDRFSGSGSGTDFTLKISRVEAEDLGVYYCFQGSHVPPTFGGGTKLEIK", "modifications": "VH chain of XC252 polypeptide; VL chain of XC252 polypeptide"}}, "key": {"HER3": {"target": "HER3 (Homo sapiens, UniProt P21860)", "sequence (P21860 20-1342)": "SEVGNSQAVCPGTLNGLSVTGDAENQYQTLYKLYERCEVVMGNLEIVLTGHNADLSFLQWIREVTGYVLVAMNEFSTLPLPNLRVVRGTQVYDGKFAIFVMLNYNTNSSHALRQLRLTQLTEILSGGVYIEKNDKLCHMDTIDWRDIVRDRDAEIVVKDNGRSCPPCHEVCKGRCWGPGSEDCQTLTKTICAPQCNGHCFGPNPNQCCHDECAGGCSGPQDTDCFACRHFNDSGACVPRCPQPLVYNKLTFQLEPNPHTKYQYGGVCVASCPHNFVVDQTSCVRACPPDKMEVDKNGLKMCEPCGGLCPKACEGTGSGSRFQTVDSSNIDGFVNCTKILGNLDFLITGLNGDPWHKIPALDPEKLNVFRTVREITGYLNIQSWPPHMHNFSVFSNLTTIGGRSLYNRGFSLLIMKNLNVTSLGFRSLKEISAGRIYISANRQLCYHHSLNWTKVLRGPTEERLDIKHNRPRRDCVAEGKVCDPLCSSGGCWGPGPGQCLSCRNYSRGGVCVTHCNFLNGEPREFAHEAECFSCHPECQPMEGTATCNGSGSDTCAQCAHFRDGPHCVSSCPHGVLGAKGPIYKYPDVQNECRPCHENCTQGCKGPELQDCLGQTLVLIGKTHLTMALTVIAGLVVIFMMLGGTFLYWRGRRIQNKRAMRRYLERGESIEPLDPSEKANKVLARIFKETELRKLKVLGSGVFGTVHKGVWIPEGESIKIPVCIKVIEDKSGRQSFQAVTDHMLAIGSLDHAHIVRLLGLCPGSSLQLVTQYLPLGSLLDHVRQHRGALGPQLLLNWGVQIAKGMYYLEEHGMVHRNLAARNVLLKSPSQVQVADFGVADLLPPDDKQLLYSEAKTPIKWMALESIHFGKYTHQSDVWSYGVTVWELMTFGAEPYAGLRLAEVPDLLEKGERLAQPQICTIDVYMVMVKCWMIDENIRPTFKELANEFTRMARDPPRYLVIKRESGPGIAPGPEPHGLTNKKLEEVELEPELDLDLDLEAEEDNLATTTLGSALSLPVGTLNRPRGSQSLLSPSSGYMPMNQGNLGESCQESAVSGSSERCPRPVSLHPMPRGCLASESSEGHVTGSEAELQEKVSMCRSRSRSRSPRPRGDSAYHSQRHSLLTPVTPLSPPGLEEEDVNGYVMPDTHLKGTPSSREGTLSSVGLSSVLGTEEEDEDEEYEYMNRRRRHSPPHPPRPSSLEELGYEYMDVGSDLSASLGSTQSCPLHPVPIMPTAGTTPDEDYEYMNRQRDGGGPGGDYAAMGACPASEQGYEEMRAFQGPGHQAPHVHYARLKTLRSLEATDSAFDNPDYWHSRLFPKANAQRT", "assay": "HER3 degradation in N87 cells (immunoblotting)", "format": "cell-based", "conditions": "3 h, 10 μg/ml mAb", "description": "(FIGS. 5A and 5B) The mAb ability to degrade HER3 after cell treatment was determined as follows. N87 cells were treated for 3 h at 37° C. with 10 μg/ml mAb. After cell lysis and protein extraction, the samples were subjected to immunoblotting with the indicated Ab. (FIG. 5C) The experiment shown in FIG. 5A was performed on 6 other cancer cell lines. (FIG. 5D) The mAb capacity to induce ADCC is reported. BXPC3-luc cells were incubated with the indicated mAbs and secondarily with human PBMC cells for 24 h. Cell killing was detected by measuring the luminescence after final addition of luciferine. *** […], ANOVA and post hoc tests.\nNG33 and NRG abilities to degrade HER3 after cell treatment were determined as follows. […]\n(§1) FIGS. 12A-D show a combination of two mAbs directed to two different epitopes of HER3. […] After ah incubation, the plate was washed 4 times with KREBS buffer, and the fluorescence intensity at 610 nm was measured using a fluorescence microplate reader. […] (FIG. 12D) The combination's capacity to modulate NRG-induced phosphorylation of HER3, AKT and ERK was evaluated using N87 cells. […] The cells were then lysed, and equal quantities of lysate protein were electrophoresed before immunoblotting, as indicated. […]\nThe capacity of the mAbs to decrease abundance of HER3 was determined using western blotting. […]"}, "[1]": {"system": "phosphorylation of HER3, AKT and ERK", "assay": "NRG-induced phosphorylation of HER3, AKT and ERK in N87 cells (immunoblotting)", "format": "cell-based, human", "conditions": "mAb 10 μg/ml 20 min, then NRG 20 ng/ml", "description": "(FIG. 9A) The indicated mAbs were checked for their capacity to compete with fluorescent dye labeled NRG. […] After washes, the labeled-NRG was added and incubated for 30 min at 4° C. Fluorescence intensity at 670 nm was determined following 3 final washes. (FIG. 9B) The ability of the mAbs to avoid NRG-induced phosphorylation of HER3, AKT and ERK, was studied with N87 cells. After 20 min treatment with the indicated mAbs (10 μg/ml) at 37° C., NRG (20 ng/ml) was added to the cells for 10 min. The cells were then lysed, and equal quantities of protein lysates were run on 9% bisacrylamide gel before immunoblotting with the indicated primary antibodies. (FIG. 9C) The capacity of mAb NG33 to avoid NRG-induced migration was checked with OVCAR-5 cells and the quantification reported in a histogram. […] Signals of triplicates were quantified. **** […] (ANOVA and post hoc tests).\nas §1"}}}
{"molecule": "B1", "values": [{"measurement": "HER3 degradation", "setting": "HER3", "result": "caused HER3 degradation, but their impact was weaker"}, {"measurement": "effect on NRG-induced HER3 phosphorylation and AKT and ERK activation", "setting": "[1]", "result": "partly decrease the phosphorylation level of HER3"}]}
